Assay results published in the supplement of paper PMC7877785.
± gives the uncertainty stated by the source.

Assay: self-splicing fitness, log relative to wild type (ln ratio); higher = more splicing; Tetrahymena group I intron in knt gene, E. coli kanamycin selection, DiMSum; sequences stand for … in CUCUCU…GGAGGGAAAAGUUAUCAGGCAUGCACCUGGUAGCUAGUCUUUAAACCAAUAGAUUGCAUCGGUUUAAAAGGCAAGACCGUCAAAUUGCGGGAAAGGGGUCAACAGCCGUUCAGUACCAAGUCUCAGGGGAAACUUUGAGAUGGCCUUGCAAAGGGUAUGGUAAUAAGCUGACGGACAUGGUCCUAACCACGCAGCCAAGUCCUAAGUCAACAGAUCUUCUGUUGAUAUGGAUGCAGUUCACAGACUAAAUGUCGGUCGGGGAAGAUGUAUUCUUCUCAUAAGAUAUAGUCGGACCUCUCCUUAAUGGGAGCUAGCGGAUGAAGUGAUGCAACACUGGAGCCGCUGGGAACUAAUUUGUAUGCGAAAGUAUAUUGAUUAGUUUUGGAGUACUCGUGGUCG
Summary of the method: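 Pooled colonies went to amplicon sequencing on an Illumina HiSeq 2500 after six replicate transformations. The plates were LB agar with 100 μg/mL carbenicillin, 50 μM IPTG and 0.2% rhamnose, with or without 25 μg/mL kanamycin, incubated overnight at 37°C or 30°C. The E. coli BL21(DE3) library had all eight P1ex-region intron nucleotides randomised, the intron placed in the knt kanamycin-resistance gene on pET-22b(+). DiMSum fitness is the error-weighted combination of replicate fold changes, kanamycin against none, normalised to wild type.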

Sequence	self-splicing fitness (ln) (30 °C)	self-splicing fitness (ln) (37 °C)
GCAAAGCAAUAUUACGCGUA	-0.985 ± 0.075	-0.362 ± 0.071
UACGAGCAAUAUUACGGGCA	-1.77 ± 0.089	-0.925 ± 0.087
UCCCAGCAAUAUUACGUGCA	-0.634 ± 0.06	-0.597 ± 0.078
CUUCAGCAAUAUUACGCUGU	-3.69 ± 0.31	-2.47 ± 0.42
UCUCAGCAAUAUUACGCUUA	-2.42 ± 0.31	-2.93 ± 0.24
UAUCAGCAAUAUUACGAUCG	-0.364 ± 0.095	0.612 ± 0.14
GAGCAGCAAUAUUACGGGCU	-3.92 ± 0.28	-2.55 ± 0.34
ACCGAGCAAUAUUACGAGUU	-3.25 ± 0.14	-2.87 ± 0.15
AGCUAGCAAUAUUACGCUUU	-3.48 ± 0.25	-2.57 ± 0.23
AAACAGCAAUAUUACGUACA	-1.23 ± 0.073	-0.0501 ± 0.082
CAAUAGCAAUAUUACGAAAC		-1.35 ± 0.24
CGCUAGCAAUAUUACGAGUA	-0.852 ± 0.11	-0.525 ± 0.11
GCCCAGCAAUAUUACGAUAU	-1.54 ± 0.077	-1.31 ± 0.1
AUGCAGCAAUAUUACGCGUA	-2.09 ± 0.18	-1.71 ± 0.2
CGCGAGCAAUAUUACGAGCA	-1.27 ± 0.13	-0.102 ± 0.18
CGGGAGCAAUAUUACGGUAG	-3.73 ± 0.29	-2 ± 0.27
CGCAAGCAAUAUUACGCUCG	-3.87 ± 0.32	-2.95 ± 0.29
CCCUAGCAAUAUUACGGGCA	-2.16 ± 0.22	-1.55 ± 0.2
CAGAAGCAAUAUUACGGGCA	-2.53 ± 0.16	-1.76 ± 0.18
GGAGAGCAAUAUUACGGCUU	-0.815 ± 0.2	-2.01 ± 0.3
UGGAAGCAAUAUUACGAGUU	-3.25 ± 0.19	-1.8 ± 0.16
CGUUAGCAAUAUUACGUGGC	-2.5 ± 0.25	-2.75 ± 0.25
GCCCAGCAAUAUUACGUAGA	-0.69 ± 0.052	0.0571 ± 0.064
AAAGAGCAAUAUUACGUUUA	-1.71 ± 0.17	-1.12 ± 0.21

Sequence	self-splicing fitness (ln) (30 °C)	self-splicing fitness (ln) (37 °C)
AUCGAGCAAUAUUACGUCUU	-2.79 ± 0.12	-1.41 ± 0.12
CCCCAGCAAUAUUACGCGGG	-4.19 ± 0.18	-3.1 ± 0.23
GAUGAGCAAUAUUACGUACG	-2.59 ± 0.35	-1.55 ± 0.5
GGCAAGCAAUAUUACGCUCG	-1.66 ± 0.12	-1.4 ± 0.19
ACGUAGCAAUAUUACGACGC	-0.35 ± 0.25	-0.563 ± 0.3
GUCUAGCAAUAUUACGGAGU	-0.693 ± 0.096	0.121 ± 0.093
GGGCAGCAAUAUUACGGGGA	-2.97 ± 0.21	-1.56 ± 0.17
GGGCAGCAAUAUUACGACCA	-0.297 ± 0.28	0.951 ± 0.41
AUGCAGCAAUAUUACGCUAU	-2 ± 0.12	-1.33 ± 0.14
AAGGAGCAAUAUUACGCGAU	-2.06 ± 0.15	-2.29 ± 0.28
AUGCAGCAAUAUUACGAUUG	-2.67 ± 0.2	-2.83 ± 0.32
AGCUAGCAAUAUUACGCAGU	-2.97 ± 0.19	-2.02 ± 0.26
CUAGAGCAAUAUUACGGCGA	-3.28 ± 0.32	
ACUAAGCAAUAUUACGAGGC	-3.03 ± 0.23	-2.48 ± 0.25
CGGCAGCAAUAUUACGACUG	-1.74 ± 0.24	-0.611 ± 0.26
CAAAAGCAAUAUUACGUGUG	-2.48 ± 0.055	-1.09 ± 0.059
CGGUAGCAAUAUUACGUGCA	-1.61 ± 0.12	-0.501 ± 0.13
CCUUAGCAAUAUUACGGUCG	-0.919 ± 0.092	-0.755 ± 0.097
CGGAAGCAAUAUUACGACGA	-1.75 ± 0.21	-0.502 ± 0.15
ACAUAGCAAUAUUACGUAUC	-3.37 ± 0.19	-1.62 ± 0.2
UCUUAGCAAUAUUACGGGCG	-1.5 ± 0.14	-0.448 ± 0.17
GACAAGCAAUAUUACGUAAG	-2.11 ± 0.12	-1.36 ± 0.14
GAUUAGCAAUAUUACGCCUU	-0.529 ± 0.11	-0.304 ± 0.12
GCCUAGCAAUAUUACGCAAG	-3.71 ± 0.47	
